The text below walks through data of publication PMC2234252 (The Journal of Cell Biology, 2008).

Where a chain is given by its changes, count along the chain named. Numbers in names are those of the source. Where two headings read alike, the source gives them in different places.

The target in assay [1] is T1, hZwint-1 (human, UniProt O95229 1-277).
T1 sequence (looked up): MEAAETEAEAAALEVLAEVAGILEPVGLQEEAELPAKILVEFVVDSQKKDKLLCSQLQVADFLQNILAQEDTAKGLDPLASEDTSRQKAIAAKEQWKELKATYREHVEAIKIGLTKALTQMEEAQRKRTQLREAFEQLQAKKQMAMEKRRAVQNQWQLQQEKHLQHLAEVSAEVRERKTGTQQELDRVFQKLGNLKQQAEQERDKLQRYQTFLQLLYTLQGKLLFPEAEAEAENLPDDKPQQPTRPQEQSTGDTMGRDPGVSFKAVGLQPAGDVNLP
Briefly: two-hybrid.

Assay [2] has as its target T1, hZwint-1. Briefly: two-hybrid. This is another data set of the same source.

B1: hZW10 DI69AA (natural protein, human, UniProt O43264 1-779, looked up)
chain: MASFVTEVLAHSGRLEKEDLGTRISRLTRRVEEIKGEVCNMISKKYSEFLPSMQSAQGLITQVDKLSEAADLLKSRIESEVRRDLHVSTGEFTDLKQQLERDSVVLSLLKQLQEFSTAIEEYNCALTEKKYVTGAQRLEEAQKCLKLLKSRKCFDLKILKSLSMELTIQKQNILYHLGEEWQKLIVWKFPPSKDTSSLESYLQTELHLYTEQSHKEEKTPMPPISSVLLAFSVLGELHSKLKSFGQMLLKYILRPLASCPSLHAVIESQPNIVIIRFESIMTNLEYPSPSEVFTKIRLVLEVLQKQLLDLPLDTDLENEKTSTVPLAEMLGDMIWEDLSECLIKNCLVYSIPTNSSKLQQYEEIIQSTEEFENALKEMRFLKGDTTDLLKYARNINSHFANKKCQDVIVAARNLMTSEIHNTVKIIPDSKINVPELPTPDEDNKLEVQKVSNTQYHEVMNLEPENTLDQHSFSLPTCRISESVKKLMELAYQTLLEATTSSDQCAVQLFYSVRNIFHLFHDVVPTYHKENLQKLPQLAAIHHNNCMYIAHHLLTLGHQFRLRLAPILCDGTATFVDLVPGFRRLGTECFLAQMRAQKGELLERLSSARNFSNMDDEENYSAASKAVRQVLHQLKRLGIVWQDVLPVNIYCKAMGTLLNTAISEVIGKITALEDISTEDGDRLYSLCKTVMDEGPQVFAPLSEESKNKKYQEEVPVYVPKWMPFKELMMMLQASLQEIGDRWADGKGPLAAAFSSSEVKALIRALFQNTERRAAALAKIK
Turning to B1, the β-galactosidase assay in the assay with hZwint-1 [1] was determined as 1.2.

B2: hZW10 S55A (natural protein, human, UniProt O43264 1-779, looked up)
chain: B1 chain with S55A, A69D, A70I
The molecule B2 returned a β-galactosidase assay in the assay with hZwint-1 [1] of 449.

B3: hZW10 GLI58AAA (natural protein, human, UniProt O43264 1-779, looked up)
chain: B1 chain with G58A, L59A, I60A, A69D, A70I
In the assay with hZwint-1 [1], B3 gave a β-galactosidase assay of 2.7.

B4: hZW10 SE67AA (natural protein, human, UniProt O43264 1-779, looked up)
chain: B1 chain with S67A, E68A, A69D, A70I
For the molecule B4, the β-galactosidase assay with hZwint-1 [1] is 1.8.

B5: hZW10 SE79AA (natural protein, human, UniProt O43264 1-779, looked up)
chain: B1 chain with A69D, A70I, S79A, E80A
In turn, B5 gave a β-galactosidase assay with hZwint-1 [1] of 131.

B6: hZW10 C5 (aa 1–410) (domain or fragment, human, UniProt O43264 1-410, looked up)
chain: MASFVTEVLAHSGRLEKEDLGTRISRLTRRVEEIKGEVCNMISKKYSEFLPSMQSAQGLITQVDKLSEDIDLLKSRIESEVRRDLHVSTGEFTDLKQQLERDSVVLSLLKQLQEFSTAIEEYNCALTEKKYVTGAQRLEEAQKCLKLLKSRKCFDLKILKSLSMELTIQKQNILYHLGEEWQKLIVWKFPPSKDTSSLESYLQTELHLYTEQSHKEEKTPMPPISSVLLAFSVLGELHSKLKSFGQMLLKYILRPLASCPSLHAVIESQPNIVIIRFESIMTNLEYPSPSEVFTKIRLVLEVLQKQLLDLPLDTDLENEKTSTVPLAEMLGDMIWEDLSECLIKNCLVYSIPTNSSKLQQYEEIIQSTEEFENALKEMRFLKGDTTDLLKYARNINSHFANKKCQDVIVA
Molecule B6 returned a β-galactosidase assay with hZwint-1 [2] of 26.6.

B7: hZW10 C4 (aa 1–496) (domain or fragment, human, UniProt O43264 1-496, looked up)
chain: MASFVTEVLAHSGRLEKEDLGTRISRLTRRVEEIKGEVCNMISKKYSEFLPSMQSAQGLITQVDKLSEDIDLLKSRIESEVRRDLHVSTGEFTDLKQQLERDSVVLSLLKQLQEFSTAIEEYNCALTEKKYVTGAQRLEEAQKCLKLLKSRKCFDLKILKSLSMELTIQKQNILYHLGEEWQKLIVWKFPPSKDTSSLESYLQTELHLYTEQSHKEEKTPMPPISSVLLAFSVLGELHSKLKSFGQMLLKYILRPLASCPSLHAVIESQPNIVIIRFESIMTNLEYPSPSEVFTKIRLVLEVLQKQLLDLPLDTDLENEKTSTVPLAEMLGDMIWEDLSECLIKNCLVYSIPTNSSKLQQYEEIIQSTEEFENALKEMRFLKGDTTDLLKYARNINSHFANKKCQDVIVAARNLMTSEIHNTVKIIPDSKINVPELPTPDEDNKLEVQKVSNTQYHEVMNLEPENTLDQHSFSLPTCRISESVKKLMELAYQTLLE
The molecule B7 registered a β-galactosidase assay with hZwint-1 [2] of 1.

B8: hZW10 C3 (aa 1–560) (domain or fragment, human, UniProt O43264 1-560, looked up)
chain: MASFVTEVLAHSGRLEKEDLGTRISRLTRRVEEIKGEVCNMISKKYSEFLPSMQSAQGLITQVDKLSEDIDLLKSRIESEVRRDLHVSTGEFTDLKQQLERDSVVLSLLKQLQEFSTAIEEYNCALTEKKYVTGAQRLEEAQKCLKLLKSRKCFDLKILKSLSMELTIQKQNILYHLGEEWQKLIVWKFPPSKDTSSLESYLQTELHLYTEQSHKEEKTPMPPISSVLLAFSVLGELHSKLKSFGQMLLKYILRPLASCPSLHAVIESQPNIVIIRFESIMTNLEYPSPSEVFTKIRLVLEVLQKQLLDLPLDTDLENEKTSTVPLAEMLGDMIWEDLSECLIKNCLVYSIPTNSSKLQQYEEIIQSTEEFENALKEMRFLKGDTTDLLKYARNINSHFANKKCQDVIVAARNLMTSEIHNTVKIIPDSKINVPELPTPDEDNKLEVQKVSNTQYHEVMNLEPENTLDQHSFSLPTCRISESVKKLMELAYQTLLEATTSSDQCAVQLFYSVRNIFHLFHDVVPTYHKENLQKLPQLAAIHHNNCMYIAHHLLTLGHQFR
B8: in the assay with hZwint-1 [2], the β-galactosidase assay turned out to be 2.5.
